From patent US20230027739A1, “ANTIGEN-BINDING AND ANTIGEN D[…]” (Entrada Therapeutics, Inc., priority 2021, published 2023) come the findings set out here.

The assay has as its target KRas in human cancer cell lines with KRas mutations (HCT-116, SW480, LS180, LS174T) (human), P01116. The assay can be described thus: cell-based or functional assay.

B1: K19-Cys-EEV12 (designed binder)
chain: MHHHHHHENLYFQGDLGKKLLEAARAGQDDEVRILMANGADVNASDRWGWTPLHLAAWWGHLEIVEVLLKRGADVSAADLHGQSPLHLAAMVGHLEIVEVLLKYGADVNAKDTMGATPLHLAARSGHLEIVEELLKNGADMNAQDKFGKTTFDISTDNGNEDLAEILQKLC
modifications: not checked
Regarding B1, the IC50 of cell viability (CellTiter-Glo, 72 h) on KRas mutant cell lines was in the range of 2 to 8 µM.
